Read-outs that look alike come from different tables or passages of the source. Positions of bridges follow the written chain, without caps; N, C: chain ends. Non-standard residues stand in square brackets, D forms with d. No end group written: not given here.
Columns and labels:
[1] = system: MCP-1 induced THP-1 migration; assay: THP-1 trans-well migration assay, MCP-1 as chemoattractant; assay type: cell-based, human; conditions: for EC50: Homo sapiens
Method in brief: (§1)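 5×10^4 THP-1 cells with serially diluted peptide in upper chamber, 5 µm filter, recombinant human chemokine 50 ng/ml (5.9 nM) in lower chamber. Incubated 4 h at 37 °C. Migrated cells counted by MTT staining, A595 read against a THP-1 standard curve.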

[2] = molecular target: T1, short splice variant D2 dopamine receptor (Homo sapiens, UniProt P14416); assay: Dopamine receptor membrane binding (3H-Spiperone); conditions: 100 μM highest concentration tested; read-out: ED50 for competition of spiperone binding to short splice variant D2 dopamine receptor
T1 construct: purchased RBI/Sigma D-179
Method: For dopamine receptor binding, membranes (D-179, RBI/Sigma) are diluted into binding buffer (75 mM Tris pH 7.4, 12.5 mM MgCl2 and 2 mM EDTA). For example, 10 μl of membranes are diluted in 500 μl of binding buffer (i.e., 1:50 dilution), which is aliquoted into labelled tubes. Cold competitor or test competitor is added, (e.g., 5 μl of 100× stock solution; 5 μl of 1 mM haloperidol solution (H-100, RBI/Sigma in DMSO). Radioligand is then added (3H-Spiperone, TRK 818, Amersham, 250 μCi in 250 μl, 10.5 μM at 95 Ci/mmol). For competition studies, 0.5 nM is used. A 100× stock (i.e., 50 nM) is made by diluting the commercial stock 1:210 in binding buffer, and 5 μl is added to every tube. Control tubes have radioligand but no membranes. The mixtures are vortexed, then spun very briefly. The mixtures are then incubated for 1 hour at 27° C. in a water bath. The mixture is filtered through GF/C filters over a vacuum. Each filter is pre-soaked in polyethyleneimine (0.3% in water; add 1 ml of 10% stock (P-261; RBI/Sigma) to 33 ml of MilliQ water). The tubes are washed with 2-3 ml of wash buffer (50 mM Tris pH 7.4) and the wash filtered. The filters are then rinsed with 3×5 ml of wash buffer, air dried, placed in a scintillation vial and 4.5 ml of scintillant added. The activity on the filter is then determined.

α2-adrenoceptors = assay: α2-adrenoreceptor membrane binding (3H-RS-79948-197)
CCR5 = molecular target: T2, CCR5 (Homo sapiens, UniProt P51681); assay: Scatchard analysis of labeled RANTES binding to CCR5 HOS cells; conditions: 4° C., 2 hours, read-out: affinity of RANTES binding sites
T2 construct: host or cells: HOS cells
Method: To establish the kinetics of labeled RANTES binding to CCR5, CCR5 cells and their parental line were exposed to labeled RANTES at 0.05 nM in the absence or presence of a 500-fold excess of unlabeled RANTES. Binding was performed at either 4° C. or room temperature for various periods between 30 minutes and 4 hours. All data was collected in triplicate. Equilibrium was achieved slightly quicker at room temperature than 4° C., and that in both cases binding was complete by 2 hours (FIG. 22A). […] Based on this experiment, all binding experiments were done at 4° C. for 2 hours.
A Scatchard analysis was performed under the conditions determined to represent equilibrium binding. The purpose of this experiment was to estimate the number of high affinity binding sites (CCR5 receptors) on the cell surface, since the full Scatchard analysis is performed under conditions where the binding was limited by availability of binding sites, not by number of molecules RANTES added. The result indicated about 80,000 binding sites per cell on the parental line and about 200,000-400,000 binding sites per cell on the high expressing CCR5 line. Using this information, the conditions necessary to perform a full 12-point Scatchard analysis at equilibrium, limited by binding site number, were calculated. […]

[3] = system: MIP1α induced THP-1 migration; assay: THP-1 trans-well migration assay, MIP1α as chemoattractant; assay type: cell-based, human; conditions: ns = not significantly different from control
Method in brief: as §1

[4] = system: SDF-1α induced THP-1 migration; assay: THP-1 trans-well migration assay, SDF-1α as chemoattractant; assay type: cell-based, human; conditions: ns = not significantly different from control
Method in brief: as §1

HIV = assay type: cell-based; conditions: ns = not significantly different from control
CCR5/CXCR4 = assay: Affinity for CCR5/CXCR4; assay type: binding; conditions: read-out: affinity constant for CCR5/CXCR4
gp120 = conditions: ns = not significantly different from control; >100 = ED50 not determined
[5] = molecular target: T3, Duffy Antigen Receptor for Chemokines (DARC) (Homo sapiens, UniProt Q16570); assay: DARC binding: competition with 125I-MCP-1 on red blood cells
T3 sequence (Q16570 1-336): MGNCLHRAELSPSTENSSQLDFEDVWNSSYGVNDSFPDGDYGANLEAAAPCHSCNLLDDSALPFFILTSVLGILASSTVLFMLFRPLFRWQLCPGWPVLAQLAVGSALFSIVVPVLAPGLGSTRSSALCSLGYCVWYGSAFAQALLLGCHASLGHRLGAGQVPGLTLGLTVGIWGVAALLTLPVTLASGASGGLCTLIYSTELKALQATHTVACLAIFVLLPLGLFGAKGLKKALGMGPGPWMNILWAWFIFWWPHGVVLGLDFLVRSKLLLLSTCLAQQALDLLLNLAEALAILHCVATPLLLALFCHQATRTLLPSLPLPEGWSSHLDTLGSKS

[6] = rat, in vivo
[7] = mouse, in vivo, sc

T1 sequence (P14416 1-414 isoform P14416-2): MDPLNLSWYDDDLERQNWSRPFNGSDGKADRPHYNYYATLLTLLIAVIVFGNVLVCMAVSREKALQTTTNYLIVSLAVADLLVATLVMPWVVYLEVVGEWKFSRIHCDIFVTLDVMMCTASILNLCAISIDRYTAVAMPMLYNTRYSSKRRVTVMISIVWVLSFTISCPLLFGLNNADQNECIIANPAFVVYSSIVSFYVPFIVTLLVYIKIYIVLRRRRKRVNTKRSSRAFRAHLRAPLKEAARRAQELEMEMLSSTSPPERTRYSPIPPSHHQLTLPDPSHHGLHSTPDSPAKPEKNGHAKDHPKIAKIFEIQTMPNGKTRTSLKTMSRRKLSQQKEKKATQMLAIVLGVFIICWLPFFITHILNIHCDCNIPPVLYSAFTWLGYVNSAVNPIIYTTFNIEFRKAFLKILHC
T2 sequence (P51681 whole entry): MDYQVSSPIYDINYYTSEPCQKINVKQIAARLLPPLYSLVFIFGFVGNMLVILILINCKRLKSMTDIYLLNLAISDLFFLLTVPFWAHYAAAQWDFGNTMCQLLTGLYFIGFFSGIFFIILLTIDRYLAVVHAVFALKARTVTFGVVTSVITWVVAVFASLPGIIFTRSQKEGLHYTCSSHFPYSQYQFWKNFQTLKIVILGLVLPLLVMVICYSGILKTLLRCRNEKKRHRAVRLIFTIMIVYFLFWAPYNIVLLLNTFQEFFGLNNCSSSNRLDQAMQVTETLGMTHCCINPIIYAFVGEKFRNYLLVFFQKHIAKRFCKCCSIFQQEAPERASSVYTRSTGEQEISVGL

O=C1CCC(N2C(=O)c3ccccc3C2=O)C(=O)N1 (stereo not drawn) [Thalidomide, reference compound]
activity in the MCP-1 induced THP-1 migration assay, in words [1]: at 100 μM also inhibited THP-1 migration induced by MCP-1 | EC50 ([1]; THP-1, agent with the cells in the upper compartment, n.s. = no statistically significant inhibition (p > 0.05), read-out: ED50 versus MCP-1, inhibition of THP-1 migration): ~50000 nM | IC50 [2]: > 100000 nM

NC(=O)C1C(O)CCC2CN3CCc4c([nH]c5ccccc45)C3CC21 (stereo not drawn) [Y-II, Yohimban-17-amide]
EC50 ([1]; THP-1, read-out: ED50 versus MCP-1 induced chemotaxis of THP-1): 0.5 nM | selectivity for chemokine inhibition of alpha-adrenoreceptor binding (α2-adrenoceptors): 1,500 fold

RANTES
Kd (CCR5): ~1 nM

Vaekpcksstirrys (V[dA][dE][dK][dP][dC][dK][dS][dS][dT][dI][dR][dR][dY][dS]) [LRD peptide 2(1-15)[MCP-1]]
MCP-1 ED-50 ([1]; ns = not significantly different from control): ns | MIPIa ED-50 [3]: ns | SDF1a ED-50 [4]: ns | % virus inhibition (HIV): 72% | Kd (CCR5/CXCR4): ≤ 100 nM | gp120 ED-50 (gp120): 3 µM | decrease in Duffy binding relative to the LFL peptide [5]: ~100 fold | association (affinity) constant for DARC ([5]; red blood cells): 25 µM

^3H-CRD-L-Leu4Ile11Cys13 peptide 3(3-12)[MCP-1]: diastereomer of CRD-Leu4Ile11Cys13 peptide 3(3-12)[MCP-1] with L-leucine instead of D-leucine ([dC][dQ][dI][dW][dK][dQ][dK][dP][dD]L[dC]-NH2; disulfide 1-11; also: 3H-labelled, site not given here)
activity in the MCP-1 induced THP-1 migration assay, in words [1]: retained functional activity | A [6]: A: 48.88 μg/mL | AUC [6]: 31430 ng·h/mL | B [6]: B: 63.64 μg/mL | Maximal concentration [6]: 1,710 ng mL^−1 | Maximal concentration/dose [6]: 0.000017 | Vd [6]: 0.36 L/kg | dose accounted for in the 25 tissues and organs assayed at 3 hours post injection [6]: about 11 % i.d. | dose excreted in urine over the first 2 hours [6]: > 80 % i.d. | injected radioactivity in the urine with a mass consistent with the intact, cyclized structure [6]: > 80% | serum concentration at 30 minutes [6]: 591 ng/g | share of the total counts in the unwashed cell pellet at 10 minutes [6]: < 12% | α [6]: α: 9.59 | β [6]: β: 2.42 | dose eliminated in the urine over the first 4 hours ([6]; iv): 86.6+/−16.5 % i.d. | injected dose present in blood by four hours post injection ([6]; iv): about 0.1% | serum concentration at 10 minutes post injection, females ([6]; iv): 1238 ± 138 ng/mL | serum concentration at 10 minutes post injection, males ([6]; iv): 1141 ± 283 ng/mL | serum level at 10 minutes, females ([6]; iv): 12.45±1.39 % of the injected dose | serum level at 10 minutes, males ([6]; iv): 14.38±3.46 % i.d. | Elimination half-life ([6]; iv, 100 ug): 11.4 min | alpha-phase T1/2 ([6]; iv, 100 ug): 4.2 min | beta-phase T1/2 ([6]; iv, 100 ug): 17.4 min | dose remaining in the blood by 2 hours ([6]; iv, 2 h): less than 1 % i.d. | average serum concentration at 30 minutes post injection [7]: 503 ng/g

— US7989466B2, “Methods to inhibit or augment an inflammatory response” (Cambridge Enterprise Limited, priority 1999, dated 2011)
